Measurements published in the nanobody polyreactivity screen of Harvey et al. (2022).

Test: yeast display, Sf9 membrane polyspecificity reagent, FACS + sequencing; frameworks hold sequencing errors
How it was run: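 A synthetic nanobody library was expressed on Saccharomyces cerevisiae BJ5465 by galactose induction for 36–48 hours. The library was stained for 1 hour at 4 °C with 10% biotinylated, detergent-solubilized Sf9 membrane reagent and enriched with streptavidin microbeads before FACS. Low and high (top ~1%) gates were set on anti-HA fluorescence for expression and streptavidin fluorescence for reagent binding, and each polyreactivity label reflects the gate of origin.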

Sequence | polyreactivity (PSR sort gate)
QVQLVESGGGLVQAGGSLRLSCAASGYIFPDYPMGWYRPATGKERELVAAFTSSGGRTYYADSVKGRFTISRDNAKNTVYLQMNSLKPEDTAVYYCAAVSVLKKTFDYWGQGTQVTVSS | high polyreactivity
QVQLVESGGGLVQAGGSLRLSCAASGSIFGTYAMGWYRQAPGKEREFVAAISWADGSTYYADSVKGRFTISRDNAKNTVYLQMNSLNPEDTAVFYCAVRRVGSIYIDRYIYVVADYDYWGQGTQVTVSS | low polyreactivity
HVQLVETVGGLVQAGGSLRLSCAASGSNFDPNAMGWYRQAPVKERELVAAISWSGGSTYYADSVKGRFTISRDNAKNNVYLQMHSLKPEDTAVYYCNAQFYDSYSYTNDYWGQGTQVTVSS | low polyreactivity
QVQLVESGGGLVQAGGTLRLICAASGFTISKYAMGWYRQAPGKERELVAVISSGGLTNYADSVKGRFTISRDNAKNTVYLQMNSLKPEDSEVYYCAAIGWRTRSRFVYWGQGTQVTVAS | high polyreactivity
QVQLVESGGGLVQAGGSLRLSCAASGFTFHLYAMGWYRQAPRKERELVAAISQSGDSTYYADTVKGRFTISRDNAKNTFYLQMNSLKPEDTAVYYFNADNDCVVWTYPFDFDYWGQGTQVTVSS | low polyreactivity
QVQLVESGGGLVQAGGSLRLSCAASGRIFRSNAMGWYRQAPGKERELVAAINYRGDRTYYADSVKGRFTISRDNAKNTVYLQMYSLKPEDTAVYYCNARRYSIPVSAGGYDSWGQGTQVTVSS | high polyreactivity
QVQLVESGGGLVQAGGSLRLSCAASGRTFYNYAMGWYRQAPGKERELVAAISWSDGTTYYADSVKGRFTISRDNAKNTVYLQMNSLKPEDTAVYYCAAEFESSFALGFYYWGQGTQVTVSS | high polyreactivity
QVQLVESGGGLVQAGGSLRLSCAASGSIFPKYAMGWYRQAPGKERELVAGISRSGGITHYADSVKGRFTISRDNAKNTVYLQMNSLKPEDTAVYYCAALWARALSYYYWGQGTQVTVSS | high polyreactivity
QVQLVESGGGLVQAGGSLRLSCAASGSIFRVYAMGWYRQAPGKERELVAAITRGGSTYADSVKGRFTISRDNAKNTVYLQMNSLKPEDTAVYYCAARVSYWGQGTQVTVSS | high polyreactivity
QVQLVESGGGLVQAGGSLRISCAASGSIFGYYAMGWYRHSPGTERELVAAISWSDGSTYYADSVKGRFTISRDNAKNTVYLQMNSLKPEDTAVYYCAARFTPYITSDDGHYDYWGQGTQVTVSS | low polyreactivity
QVQLVESGGGLVQAGGSLRLSCAASGRIFLLNAMGWYRQAPGKERELVAAITSGGTTYYADSVKGRFTISRDNAKNTVYLQMNSLKPEDTAVYYCAAEAGYFTYGRRDYWGQGTQVTGSS | low polyreactivity
QVQLVESGGGLVQAGGSLRLSCAAAGIIFISYDMGWYRPAPGKDRELVARINWDGGSTYYADSVKGRFTISRDKAKHTFYLQTNTLKPEDTAVSYCAAGFVGTNYPLQGFSYEYWGPGTQVTVSS | low polyreactivity
QVQLVESGGGLVQAGGSLRLSCAASGRIFTFNAMGWYRQAPGKERELVAAINSGGSRTYYADSVKGRFTISRDNAKNTVYLQMNSLKPEDTAVYYCAAGYSGWVRSSSPFYYWGQGTQVTVSS | high polyreactivity
QVHLVESGGGLVQAGGSLPLSCAATGRTFVYYAMGWYIQAPGKERELVAAITWTGGSTYYADSVKGRFTISRDTAKNTVYLHMNSMKPEDTAVYYFKAAVFRYRNEYDYWGQGTQVTVSS | low polyreactivity
QVQLVESGGGLVQAGGSLRLSCAASGSIFTLYVMGWYRQAPGKERELVAAITWSGGSTYYADSVKGRFTISRDNAKNTVYLQMNSLKTEDPAVYYCNADVRWDSQDYYYWGQGTQVTVSS | low polyreactivity
QVQLVESGGGLVQAGGSLRLSCAASGRTFSGYAMGWYRQAPGKERELVAAITGRGGSTYYADSVKGRFTISRDNAKNTVYLQMNSLKPEDTAVYYCAAYGIWYRVDYWGQGTQVTVSS | high polyreactivity
QVQLVESGGGLVQAGGSLRLSCAASGRIFAYYAMGWYRQAPGKERELVATIRSGGDTNYADSVKGRFTISRDNAKNTVYLQMNSLKPEDTAVYYCNALYDWWYPHEYNYWGQVTQVTVSS | low polyreactivity
QVQLVESGGGLVQAGGSLRLSCAASGSIFPYNVMGWYRPAPGQERELVAANTTGGRTNYADSVKGRFTISRDNAKNTVYLQMNSLKPEDTAVYYCAARYGYYDSRRWYYYSGQGTQVTVSS | high polyreactivity
QVQHVESGGGLVQAGGSLRLSCAASGFTFLNYSMGWYRQAPGKERELVAAISFSTGRTYYADSVKGRFTISRDNAKNTVYLQMNSLKPEDTAVYYCNAERGFSDYWGQGTQVTVSS | high polyreactivity
QVQLVESGGGLVQAGGSLLLSSAASGINFGNYAMGWYRQAPGKERELVATIDSAGSPYYADSVNGRFTISRDNAKNTVYLQMNSLKPEDTAVYYCAVRFGTYGRYFGYDYWGQGTQVTVSS | high polyreactivity
QVQLVESGGGLVQAGGSLRLSCAASGSTFTRYAMGWYRQEPGKERELVAAITRRGVSTYYSDSVKGRFTISLDNAKNTVYLQMNSLKPEDTAVYYCNADVEHYSTLSEYWGQGTQVTVSS | high polyreactivity
QVQLVESGGGLVQAGGSLRISFAASGYIFYNYARRSYRQAPGKERELLAAMTRGGSTNYADSVKGRFTISRDNAQNTVYLQMNSLKPEDTAGYYCAAEEGPPWSRYDSWGQGTQVTVSS | low polyreactivity

Sequence | polyreactivity (PSR sort gate)
QVQLVESGGGLDQAAGSLPLSCAASGLIFPVYAMGWYRQAPGKAREFVASIWRGGTTYYADSVKGRFTISRDNAKNTVYLQMNSLNPEDTAVYYCAARYYPSGLVFPFTKYDYWGQGTQVTVSS | high polyreactivity
QVQLVESGGGLVQAGGSLRLSCAASGSYAKGWYRQAPGKERELVAYINGRDGSTYYADSVKGRFTISRDNAKNTVYLQMNSLIPEDTAVYYCNADYVLQYNYWGQGTQVTVSS | low polyreactivity
QVQLVESGGGLVHAGGSLRLSCAASGRIFLYYVMGWYRQAPGKERELVAAITSGGSTYYADSVKGRFTISRDNAKNTVYLQMNSLKPEDTAVYYCNKVSYYRNEYWGQGTQVTVSS | high polyreactivity
QVQLVESGGGLVQAGRSLRLSCAASGFIFWRYAMGWYRQAPGKERELVAAISSGRNTKYADSVKGRFTISRDNAKTTVYLQMNSLKPEDTAVYYCAVLGKYLWSATNRFPGSYDSWGHGTQVTVSS | high polyreactivity
QVQLVESGGGLVQAGGSLRLSCAASGSIFGLYAMGWYRQAPGKERELVAAINQSGGSTSYADSVKGRFTISRDNAKNTVYLQMNSLKPEDTAVYYCNRVRLNTEGFDYWGQGTQVTVSS | low polyreactivity
QVQLVESGGGLVQAGGSLRLSCAASGRIFAAYAMGWYRQAPGKERELVDAISSTGGTTYYADSVKGRFTISRDNAKNTVYLQMNSLKPEDTAVYYCATTVIVTKGSWHYSYDYWGQGTQVTVSS | low polyreactivity
LVQLVESGGGLVQAGGSLRLSCAASGFSFTSYTMGWYRQAPWKERELVAGISTNGGTTYYADSVKGRFTISRDNAKNTVYLQMNSLKPEDTAVYYCNAKRKYGRFPKKYYYWGQGTQVTVSS | high polyreactivity
QVQLVESGGGLVQAGGSLRISCAASGLSFYRYTMGWYRHAPGKEREFVAAITAGGSTYYADSVKGRFTISRDNAKNPVYLQMNRLKPEDTAVYYCAPRVLMEQYTYIKYDYWGQGTQVTVSS | high polyreactivity
QVQLVESGGGLVQAGGSLRLSCAASGSNFRGNAMAWYRQAPGKERELVAAITYNDGGTYYADSVKGRFTISRDNAMNTVYLQMNLLKPEDTAVYYCAAVGTGNKSILYDYWGQGTQVTVSS | low polyreactivity
QVQLVESGGGLVQAGGSLRLSCAASGFIFQIYPMGWYRQAPGKERELVAAISSGGSTNYADSVKGRFTISRDNAKNTVYLQMNSLKPEDTAVYYCAAATHYWYFYSFKDKSGFRGYYWGQGTQVTVSS | high polyreactivity
QVQLVESGGGLVQAGGSLRLSCAASGFIFGYNGMGWYRQAPGKERELVAGITYSDGSTYYADSVKGRFTISRDNAKNTVYLQMNSLKPEDTAVYYCAVEVGYTDSPYSYDYWGQGTQVTVSS | low polyreactivity
LVHLVESGGGLVQAGGSLRLSCAASGITFTGYAMGWYRQAPGKERELVAAITWSSGSTYYADSVKGRFTISRDNAKNTVYLQMNSLKPEDTAVYYCNAGYWYDGPDYIPEYDYWGQGTQVTVSS | low polyreactivity
QVQLVESGGGLVQAGGSLRLSCAASGRTFKGYTMGWYRQAPGKERELVAVITWSGDRTYYADSVKGRFTISRDNAKNTVYLQMNSLKPEDTAVYYCAARGYSLRTRGDYWGQGTQVTVSS | high polyreactivity
QVQLVESGGGLVQAGGSLRLSCAASGFTFESYAMGWYRQAPGKERELVAAISWNGGSTYYADSVKGRFTISRDNAKNTVYLQMNSLKPEDTAVYYCAARGRAPRFRRIGYDYWGQGTQVTVSS | high polyreactivity
QVQLVESGGALVQAGGSLRLSCAASGRIFIVYAMGWSRQAPGKERDLVAAITSSGGGTYYADSVKGRFTISRDNAKNTVYLQMNSLKQEDSAVFYCATRYPYRPGYEYWGQGTQVTVSS | low polyreactivity
QVQLVESGGGLVKAGGPLRLSCAASGSIFYYNPMGWYRQAPGTERELVAAITSGDSTNYADSVKGRFTISRDNAKNSVYLQLNSLKPEDTAVYYCAADYLAALTYYRTYDYWGEGTQVTVSS | low polyreactivity
QVQLVESGGGLVQAGGSLRLSCAASGSIFFSNAMGWYSPAPGKEREIVAGIRSGGITNYADSVKGRFTISRDNAKNTVYLEMNSLKPEDTAVYYCAKLNDHGRYAYAFDYWGQGTQVTVSS | low polyreactivity
QVQLVESGGGLVQAGGSLRLSCAASGRTFYYYAMGWYRQAPGKEREFVASISYSGARTYYADSVKGRFTISRDNAKNTVYLQMNSLKPEETAVYYCAAGYPLGGDYWGQGTQVTVSS | high polyreactivity
QVQLVESGGGLVQAGGSLRLSCAASGRIFWSNAMGWYRQAPGKERELVAAIRWSGGSTYYADSVKGRCTISRDNAKTTVYLQMNSLKPEDTAVYYCAASPYWSDWTKVDSWGQGTQVTVSS | low polyreactivity
QVQLVESGGGLVQEGGSLRLSCAASGSTFTTNVMGWYRQAPGKERELVAAISWSSGSTYYADSVTGRFTISRDNAKNTVYLQMNSLKPEDTAVYYCAARLVIFYPYSRYYYWGQGTQVTVSS | high polyreactivity
QVQLVESGGGLVQAGGSLRLSCAASGRTFDINTMGWYRQAPGKERELVARISGRGGSTYYADSVKGRFTISRDNAKNTVYLLMNSLKPEYTAVYYCNALGRSVLPQPIGDYWGQGTQVTVSS | high polyreactivity
